We go through two molecules from patent US20240166768A1 (YEDA RESEARCH AND DEVELOPMENT, published 2024).

For one assay, the target named is BSA (bovine, UniProt P02769). Nature of the assay: dose-response ELISA, O.D. 630. On the procedure:
ELISA reactions were carried out using flat-bottom MaxiSorp™ 96-well plates (Invitrogen). Antigen coating was performed in PBS at 1001 per well and left overnight at 4° C. For standard dose response ELISA assays, antigens were plated at a concentration of 1 μg/ml. For comparative ELISA assays with multiple antigen targets, antigens were plated at a constant molar concentration of 50 nM. The plates were washed 5 times with washing buffer (1×PBS with 0.05% Tween-20 (Sigma-Aldrich)) and incubated with 1001 blocking buffer (1×PBS with 1% BSA) for 1 h at room temperature. The blocking solution was subsequently replaced by serial dilutions of either mono- or polyclonal antibodies or serum samples for 2.5 h at RT. For standard dose response ELISA assays, antibodies were introduced over a range of dilutions whereas for ELISA screens, antibodies were introduced at 100 nM. Serum samples were assayed at a dilution of 1:100. Plates were washed 5 times with washing buffer and then incubated with anti-human IgG secondary antibody conjugated to horseradish peroxidase (HRP) (Jackson Immuno Research) in PBS at a 1:5,000 dilution. After washing the plates for additional 5 times, the plates were developed using TMB (Thermo Fisher) and absorbance was measured at 630 nm with an ELISA microplate reader (Synergy HTX plate reader, Biotek). […]

For assay [1], the target named is T1, ROI-1 peptide of MMP14 (I-A loop).
T1 construct: also called 'ROI-peptide'; 'Peptide (ROI)'
Nature of the assay: peptide validation ELISA: antibody plated, biotinylated peptide titrated, streptavidin-HRP; the concentration is that of the peptide.

Chain of BSA (P02769 25-607 limits assumed): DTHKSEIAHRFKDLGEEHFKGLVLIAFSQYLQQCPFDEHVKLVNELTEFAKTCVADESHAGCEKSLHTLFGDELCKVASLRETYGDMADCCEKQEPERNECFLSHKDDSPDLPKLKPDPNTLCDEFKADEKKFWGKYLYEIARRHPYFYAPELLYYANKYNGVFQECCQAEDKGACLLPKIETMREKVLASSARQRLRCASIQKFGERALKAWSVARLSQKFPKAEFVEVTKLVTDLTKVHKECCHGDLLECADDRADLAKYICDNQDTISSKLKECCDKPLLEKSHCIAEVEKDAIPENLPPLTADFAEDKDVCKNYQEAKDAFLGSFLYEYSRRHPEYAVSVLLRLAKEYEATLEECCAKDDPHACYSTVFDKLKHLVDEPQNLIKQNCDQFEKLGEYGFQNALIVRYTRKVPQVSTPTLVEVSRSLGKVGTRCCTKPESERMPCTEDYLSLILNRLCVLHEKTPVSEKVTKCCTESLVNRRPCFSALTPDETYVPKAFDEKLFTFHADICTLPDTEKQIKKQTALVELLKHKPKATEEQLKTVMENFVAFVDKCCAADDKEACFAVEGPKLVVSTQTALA

B1: T13-GL (antibody, human IgG1, V domains shown)
VH: EVQLVESGGGLVQPGGSLRLSCAASGFTFSSYDMHWVRQATGKGLEWVSAIGTAGDTYYPGSVKGRFTISRENAKNSLYLQMNSLRAGDTAVYYCARGIAVAGFPLDVWGKGTTVTVSS
VL: not shown
notes: also called germline version of T13
In the case of B1, in the assay with BSA, the binding result is given as “no binding (tested: about 500 nM)”.

B2: T12 (antibody, human IgG1, V domains shown)
VH: EVQLVESGGGLVQPGGSLRLSCAASGFTFNNHDMHWVRQVTGKGLEWVSSIGNFGDTYYSGSVKGRFTISRQDAKNSLYLQMNRLRVGDTAVYYCARGRAVAGNPLDVWGKGTTVTVSS
VL: EIVMTQSPATLSVSPGETATLSCRANQTLYNNLAWYQQKPGQAPRLLIYSGSTRATGIPARFSGSGSGTEFSLTISSLQSEDFAVYYCQHYTPWPPYTFGQGTKVDFK
On to B2, for which the “EC50 (read off the curve)” value in assay [1] was roughly 4 µg/mL.
